# Results reported in US20190241657A1 (Sanofi, published 2019).
# How the values were obtained:
# [1] = biological target: T1, CD123 on THP-1 target cells (UniProt P26951 19-378); assay: cell-based or functional assay
# [2] = biological target: T1, CD123 on THP-1 target cells; assay: cell-based or functional assay; remark: listed apart in the source
# [3] = biological target: T1, CD123 on THP-1 target cells; assay: cell-based or functional assay; remark: listed apart in the source
# [4] = biological target: T1, CD123 on THP-1 target cells; assay: cell-based or functional assay; remark: listed apart in the source
# [5] = biological target: T2, mature human CD123 His-II tagged Fc-fusion protein (human); assay: SPR (Biacore), CD123-Fc-His captured with His capture kit, CODV as analyte, 1:1 Langmuir with mass transfer
# T2 construct: also called huCD123; CD123-Fc-His
# Method: (§1) Binding affinities of CODV antibody-like binding proteins to human CD3ε/δ and human CD123 were measured by surface plasmon resonance (SPR) using a Biacore3000 or Biacore T200 instrument (GE Healthcare) with HBS-EP (GE Healthcare) as assay buffer). Capture of CD3ε/δ-Fc or CD123-Fc-His fusion proteins was achieved using the His capture kit (GE Healthcare). The capture antibody was coupled to CM5 chips (GE Healthcare) to approx. 12.000 RU using the amine coupling kit (BR-100-50, GE Healthcare). The CD3εδ-Fc or CD123-Fc-His fusion proteins were captured at 10 μl/min to yield Rmax values of 30 RU. Binding kinetics with the CODV antibody-like binding proteins was measured at 30 μl/min Twofold dilutions of CODV antibody-like binding proteins from 3 to 200 nM in assay buffer were used. All Fab concentrations were run in duplicate together with duplicate buffer blanks for double referencing. Regeneration of the capture surface was performed with a 1 min injection of 10 mM Glycine pH1.5 at 30 μl/min. For data analysis the BIAevaluation software (GE Healthcare) was used. Data were fit globally using a 1:1 Langmuir model with mass transfer.
# [6] = biological target: T1, CD123 on THP-1 target cells; assay: cell-based or functional assay; remark: listed apart in the source
# [7] = biological target: T2, mature human CD123 His-II tagged …; assay: Biacore
# Method: Cytotoxic effects of the CODV-Fab-TL1-RF “hz20G6×hz7G3”, CODV-Fab-OL1 “hz20G6×hz7G3” and the single chain DART MGD006 were assessed. Affinities to the CD3ε/δ-complex and CD123 of each bispecific construct were measured by Biacore. Furthermore, a cytotoxic assay was performed as described in 2.8 (table 3).
# as §1, with “Data were fit globally using a 1:1 Langmuir model with mass transfer.” left out
# [8] = biological target: T1, CD123 on THP-1 target cells; assay: cell-based or functional assay; remark: listed apart in the source
# [9] = biological target: T1, CD123 on THP-1 target cells; assay: cell-based or functional assay; remark: listed apart in the source
# T2 sequence (chain, as listed by the source limits assumed): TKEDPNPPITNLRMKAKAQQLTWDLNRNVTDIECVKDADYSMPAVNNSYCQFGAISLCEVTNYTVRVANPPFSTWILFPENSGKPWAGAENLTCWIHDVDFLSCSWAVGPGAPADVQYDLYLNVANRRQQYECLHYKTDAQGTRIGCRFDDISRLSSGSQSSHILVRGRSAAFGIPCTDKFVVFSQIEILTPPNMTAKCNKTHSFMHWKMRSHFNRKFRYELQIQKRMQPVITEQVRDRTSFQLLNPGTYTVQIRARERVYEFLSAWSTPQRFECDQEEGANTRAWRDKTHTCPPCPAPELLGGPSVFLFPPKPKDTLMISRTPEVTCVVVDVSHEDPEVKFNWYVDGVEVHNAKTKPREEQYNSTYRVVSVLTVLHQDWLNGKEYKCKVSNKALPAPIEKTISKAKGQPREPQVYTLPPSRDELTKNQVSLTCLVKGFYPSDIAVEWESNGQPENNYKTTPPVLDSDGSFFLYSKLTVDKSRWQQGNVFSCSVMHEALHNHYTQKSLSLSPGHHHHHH
# T1 sequence (P26951 19-378): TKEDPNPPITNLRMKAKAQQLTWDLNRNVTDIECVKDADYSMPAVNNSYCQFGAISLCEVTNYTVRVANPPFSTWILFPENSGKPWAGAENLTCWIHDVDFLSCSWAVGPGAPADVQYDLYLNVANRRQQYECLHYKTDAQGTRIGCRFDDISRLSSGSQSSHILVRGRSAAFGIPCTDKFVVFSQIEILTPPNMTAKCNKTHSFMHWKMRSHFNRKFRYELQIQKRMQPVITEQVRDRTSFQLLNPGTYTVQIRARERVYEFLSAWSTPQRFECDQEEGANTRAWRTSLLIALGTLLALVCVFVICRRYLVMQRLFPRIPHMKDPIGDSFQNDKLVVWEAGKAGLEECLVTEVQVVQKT
Binder,Activity - CD8+/CD69+ % Activation C = 100 nM Mean (with THP-1 target cells) [1],"T-cell Activation with THP-1 target cells, CD4+/CD69+ EC50 (pM) GMean [2]","T-cell Activation with THP-1 target cells, CD8+/CD69+ EC50 (pM) GMean [2]","flow cytometry based cytotoxic assay, EC50 (pM) GMean [3]",Activity - CD4+/CD69+ % Activation C = 100 nM Mean (with THP-1 target cells) [4],Kd [5],koff [5],kon [5],Cytotoxic assay (THP cells) EC50 [6],Kd [7],"T cell activation with THP-1 target cells, CD4+ T cells (% CD69+ cells) EC50 [8]","T cell activation with THP-1 target cells, CD8+ T cells (% CD69+ cells) EC50 [8]","Jurkat-NFAT-Luc reporter cell activation with THP1 cells, EC50 [9]"
"CODV-Fab-TL1-Knob-RFxhole ""hz20G6xhz7G3"" antibody-like binding protein (bispecific antibody, human IgG1, kappa, L234A L235A, CODV-Fab-TL format; IgG1 backbone with LALA mutation) light: not shown heavy: QVQLVESGGGVVQPGRSLRLSCAASGFTFTKAWMHWVRQAPGKQLEWVAQIKDKSNSYATYYADSVKGRFTISRDDSKNTLYLQMNSLRAEDTAVYYCRGVYYALSPFDYWGQGTLVTVSSEVQLVQSGAEVKKPGESLKISCKGSGYSFTDYYMKWARQMPGKGLEWMGDIIPSSGATFYNQKFKGQVTISADKSISTTYLQWSSLKASDTAMYYCARSHLLRASWFAYWGQGTMVTVSSASTKGPSVFPLAPSSKSTSGGTAALGCLVKDYFPEPVTVSWNSGALTSGVHTFPAVLQSSGLYSLSSVVTVPSSSLGTQTYICNVNHKPSNTKVDKKVEPKSCDKTHTCPPCPAPEAAGGPSVFLFPPKPKDTLMISRTPEVTCVVVDVSHEDPEVKFNWYVDGVEVHNAKTKPREEQYNSTYRVVSVLTVLHQDWLNGKEYKCKVSNKALPAPIEKTISKAKGQPREPQVCTLPPSRDELTKNQVSLSCAVKGFYPSDIAVEWESNGQPENNYKTTPPVLDSDGSFFLVSKLTVDKSRWQQGNVFSCSVMHEALHNHYTQKSLSLSPG",68%,0.7 pM,1.2 pM,0.8 pM,63%,215 pM,0.000102 s⁻¹,474000 M⁻¹ s⁻¹,–,–,–,–,–
"CODV-Fab-TL1-Knobxhole-RF ""hz20G6xhz7G3"" antibody-like binding protein (bispecific antibody, human IgG1, kappa, L234A L235A, CODV-Fab-TL format; IgG1 backbone with LALA mutation) light: not shown heavy: QVQLVESGGGVVQPGRSLRLSCAASGFTFTKAWMHWVRQAPGKQLEWVAQIKDKSNSYATYYADSVKGRFTISRDDSKNTLYLQMNSLRAEDTAVYYCRGVYYALSPFDYWGQGTLVTVSSEVQLVQSGAEVKKPGESLKISCKGSGYSFTDYYMKWARQMPGKGLEWMGDIIPSSGATFYNQKFKGQVTISADKSISTTYLQWSSLKASDTAMYYCARSHLLRASWFAYWGQGTMVTVSSASTKGPSVFPLAPSSKSTSGGTAALGCLVKDYFPEPVTVSWNSGALTSGVHTFPAVLQSSGLYSLSSVVTVPSSSLGTQTYICNVNHKPSNTKVDKKVEPKSCDKTHTCPPCPAPEAAGGPSVFLFPPKPKDTLMISRTPEVTCVVVDVSHEDPEVKFNWYVDGVEVHNAKTKPREEQYNSTYRVVSVLTVLHQDWLNGKEYKCKVSNKALPAPIEKTISKAKGQPREPQVCTLPPSRDELTKNQVSLSCAVKGFYPSDIAVEWESNGQPENNYKTTPPVLDSDGSFFLVSKLTVDKSRWQQGNVFSCSVMHEALHNRFTQKSLSLSPG",70%,0.9 pM,1.6 pM,1.1 pM,64%,193 pM,8.42e-05 s⁻¹,437000 M⁻¹ s⁻¹,–,–,–,–,–
"CODV-Fab-TL1-RF ""hz20G6xhz7G3"" antibody-like binding protein (bispecific antibody, human IgG1, kappa, L234A L235A, Anti-CD3 (hz20G6) x anti-CD123 (hz7G3) in the CODV-Fab-TL format; IgG1 backbone with LALA mutation; also called hz20G6xhz7G3 CODV-Fab-TL1-RF; PB05126) light: DIVMTQSPDSLAVSLGERATINCESSQSLLNSGNQKNYLTWYQQKPGQPPKPLIYWASTRESGVPDRFSGSGSGTDFTLTISSLQAEDVAVYYCQNDYSYPYTFGQGTKLEIKGGSGSSGSGGDIVMTQTPLSLSVTPGQPASISCKSSQSLVHNNANTYLSWYLQKPGQSPQSLIYKVSNRFSGVPDRFSGSGSGTDFTLKISRVEAEDVGVYYCGQGTQYPFTFGSGTKVEIKGGSGSSGSGGRTVAAPSVFIFPPSDEQLKSGTASVVCLLNNFYPREAKVQWKVDNALQSGNSQESVTEQDSKDSTYSLSSTLTLSKADYEKHKVYACEVTHQGLSSPVTKSFNRGECDKTHTCPPCPAPEAAGGPSVFLFPPKPKDTLMISRTPEVTCVVVDVSHEDPEVKFNWYVDGVEVHNAKTKPREEQYNSTYRVVSVLTVLHQDWLNGKEYKCKVSNKALPAPIEKTISKAKGQPREPQVYTLPPSRDELTKNQVSLTCLVKGFYPSDIAVEWESNGQPENNYKTTPPVLDSDGSFFLYSKLTVDKSRWQQGNVFSCSVMHEALHNRFTQKSLSLSPG heavy: not shown",78%,0.5 pM,0.7 pM,0.8 pM,75%,339 pM,0.000104 s⁻¹,308000 M⁻¹ s⁻¹,1 pM,200 pM,3.2 pM,9.9 pM,444 pM
"Single chain antibody DART format MGD006 (CD123xCD3 bi-specific diabody) (bispecific antibody, The two chains are covalently bonded to one another by a disulfide bond; also called single chain DART; CD123xCD3 bispecific DART) chain 1: QAVVTQEPSLTVSPGGTVTLTCRSSTGAVTTSNYANWVQQKPGQAPRGLIGGTNKRAPWTPARFSGSLLGGKAALTITGAQAEDEADYYCALWYSNLWVFGGGTKLTVLGGGGSGGGGEVQLVQSGAELKKPGASVKVSCKASGYTFTDYYMKWVRQAPGQGLEWIGDIIPSNGATFYNQKFKGRVTITVDKSTSTAYMELSSLRSEDTAVYYCARSHLLRASWFAYWGQGTLVTVSSGGCGGGEVAALEKEVAALEKEVAALEKEVAALEK chain 2: DFVMTQSPDSLAVSLGERVTMSCKSSQSLLNSGNQKNYLTWYQQKPGQPPKLLIYWASTRESGVPDRFSGSGSGTDFTLTISSLQAEDVAVYYCQNDYSYPYTFGQGTKLEIKGGGSGGGGEVQLVESGGGLVQPGGSLRLSCAASGFTFSTYAMNWVRQAPGKGLEWVGRIRSKYNNYATYYADSVKDRFTISRDDSKNSLYLQMNSLKTEDTAVYYCVRHGNFGNSYVSWFAYWGQGTLVTVSSGGCGGGKVAALKEKVAALKEKVAALKEKVAALKE",–,–,–,–,–,–,–,–,0.3 pM,200 pM,1 pM,3.5 pM,370 pM
